In article PMC2362091, “Expression of V1A and GRP receptors leads to cellular transformation and increased sensitivity to substance-P analogue-induced growth inhibition” (British Journal of Cancer, 2005):

Target: arginine vasopressin (AVP) (Homo sapiens), P01185
Experiment: competition

arginine vasopressin (AVP) (Homo sapiens), P01185, sequence (P01185 whole entry, looked up): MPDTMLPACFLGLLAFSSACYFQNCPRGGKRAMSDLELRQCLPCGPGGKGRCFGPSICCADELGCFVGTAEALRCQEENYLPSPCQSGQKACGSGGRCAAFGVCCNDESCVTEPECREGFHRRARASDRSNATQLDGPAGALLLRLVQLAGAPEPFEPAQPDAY

Kd: 2.98 nM
B1: V1A receptor, P37288 (protein)
chain: MRLSAGPDAGPSGNSSPWWPLATGAGNTSREAEALGEGNGPPRDVRNEELAKLEIAVLAVTFAVAVLGNSSVLLALHRTPRKTSRMHLFIRHLSLADLAVAFFQVLPQMCWDITYRFRGPDWLCRVVKHLQVFGMFASAYMLVVMTADRYIAVCHPLKTLQQPARRSRLMIAAAWVLSFVLSTPQYFVFSMIEVNNVTKARDCWATFIQPWGSRAYVTWMTGGIFVAPVVILGTCYGFICYNIWCNVRGKTASRQSKGAEQAGVAFQKGFLLAPCVSSVKSISRAKIRTVKMTFVIVTAYIVCWAPFFIIQMWSVWDPMSVWTESENPTITITALLGSLNSCCNPWIYMFFSGHLLQDCVQSFPCCQNMKEKFNKEDTDSMSRRQTFYSNNRSPTNSTGMWKDSPKSSKSIKFIPVST
